B1: D-6 aptamer (structured_DNA)
DNA: CGGATCCAGTTACGGAACTGAACAGAAGGGTGGTGTGGTTGGACTGTTCATTCAGTAAGCTTCGG

Molecular target: native human alpha-thrombin (Homo sapiens, UniProt P00734;P00734 328-363;364-622)
Assay: ITC; ITC: 20 mM HEPES-NaOH, 150 mM NaCl, 5 mM KCl, 2 mM MgCl2, 1 mM CaCl2, pH 7.4, 25 C; EMSA: same plus 0.05% Tween 20 and 10% glycerol, room temperature 30 min, ge

Binder	binding result	Kd
ACGGAACGCGTTTCAAGACTACCGTGTTTGTTCCGT (structured_DNA, natural D-DNA) [D-L-9-1t]	no binding	
GATGAACTTGTTGAAACCCAACGGGAGAATCGTTCATT (structured_DNA, natural D-DNA) [D-L-9-2t]	no binding	
B1		27 nM

From paper PMC9646512, “Directed evolution and selection of biostable l-DNA aptamers with a mirror-image DNA polymerase”
